Data on one sequence can be found in PMC4130184.

The target of this series is T1, PRIN2;CSP41b (Arabidopsis thaliana?;Arabidopsis thaliana?) (UniProt Q9XIK0+Q9SA52).
T1 sequence 1: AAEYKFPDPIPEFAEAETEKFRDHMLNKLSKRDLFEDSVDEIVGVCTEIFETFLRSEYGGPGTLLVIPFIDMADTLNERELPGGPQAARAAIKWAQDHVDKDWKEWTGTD
T1 sequence 2: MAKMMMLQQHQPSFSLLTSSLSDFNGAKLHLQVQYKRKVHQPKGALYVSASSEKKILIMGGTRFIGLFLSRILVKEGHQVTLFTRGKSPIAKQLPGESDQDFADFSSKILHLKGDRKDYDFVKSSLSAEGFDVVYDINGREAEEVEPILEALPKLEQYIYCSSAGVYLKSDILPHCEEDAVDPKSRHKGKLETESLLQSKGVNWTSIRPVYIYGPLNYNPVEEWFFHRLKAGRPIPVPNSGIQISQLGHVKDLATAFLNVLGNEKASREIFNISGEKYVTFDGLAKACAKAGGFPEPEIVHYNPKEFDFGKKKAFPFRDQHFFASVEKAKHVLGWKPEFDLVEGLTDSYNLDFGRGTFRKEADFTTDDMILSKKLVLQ
Nature of the series: EMSA. Particulars: EMSA: 10 mM Tris-HCl, 25 mM KCl, 1 mM DTT (1x from 10x stock; pH not stated), 1 ug poly(dI-dC) per 25 uL, 2.5% glycerol, 0.05% Triton X-100, 5 mM MgCl2, 10 mM …. A general note: Mobility shift assays separate free from complexed probe on a gel.

As to “ACCCACTACGGATCGTATTCAATCGTATTCATATGATTTGGAAAAAATATTCCTAGAGCAATTCTATTTCTATGTATGTGGATTCGCTTCTAATTTATTTCATCGATTACAAAAAATTTTTTATGAATCTAAACTAAAAGGATCTTATCCATTTTACATTGGTTGACATGGCTATATAAGTCATGTTATACTGTTTC (double strand) [psbA promoter probe (197/198 bp)]”, the binding result is reported as “binds”.
